# Assay results published in the supplement of paper PMC12636428.
# System: Saccharomyces cerevisiae
# Test: transcriptional activation domain activity (GFP:mCherry ratio, weighted mean of sorted bins, harmonized to initial dataset scale) (arbitrary fluorescence ratio units); higher = stronger transcriptional activation
# Conditions: beta-estradiol 1 µM; induction time 4 h
# Method in brief: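 The activation activity of each tile is the read-weighted mean of bin median fluorescence, averaged across its barcodes and mapped linearly onto the scale of the initial dataset. Tiles were fused to an estradiol-inducible synthetic transcription factor, barcoded, and integrated at URA3 in yeast diploids carrying a GFP reporter. Induction used 1 uM beta-estradiol in SC for 4 hours at 30 °C, after which cells were sorted into 8 GFP:mCherry bins, and any tile with fewer than 50 reads was dropped.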
row,Sequence,transcriptional activation domain activity
1,MFLYISLIFTLYYSTFPPPPPHPTSYLAIFLFLKLPWLFFSFSTSFSFTFFFW,58400
2,SSSEDDGKAGEGSSSSSDSEKARGRKKAKKSKEKGKGKATEGNSSSSSSDDDS,21100
3,GFVDVTEQVCGWPMGPWSDDEKLKELGRWNLRNWEEGMEGWILMLYTRFLGWS,69700
4,NAVIKDFACVNECLARCSHVITTRRIIYILQLRVHCVAYSLPILNLPLFFFSR,55300
5,LVMWTVILCPVFSFPDRGHGSMLFFLFKLCLAMLLTYLLAMLWFHCVYCIVVF,32700
6,GEAGAEQGEHGARRARTRGAGCVRGRGREVGEGAGARRRVCGRRCEREARAHN,23400
7,MLLAMGWKVATGLQTLSIFRRDGFLYFLVWINLINTMIVLFARPTLLFVTIFF,51900
8,SKFASSGLFGVDVYSVWKRATEKISDGNNTTDSNQKHHPYHNHPSNDSGNEKN,41500
9,FFLKVYLLNPLHMTRFADLLYQGAILNRVFQPYESHLQYLLQWMCDYNLYGCA,72900
10,KEKSASERKEEKRQKKMRGEDVSDSEEEKRKRKDKQRGQRVHAVGSGTTSGAS,35900
11,FFTPPSTTYLRFFLSFYPLSPFIFFFIFLSFSLPLSSFLSFSISFFFTFPFPF,36100
12,MREGWVWISEYRVLCLYFFFFLFLFFSNSFFFSPIYLFLFFTLFLVCLLCFRP,53400
13,MCVHVCLMFCSLLLSLSPFFFFHDLFLFLYTFSFSLSCFTPSYFSMFSSIPSS,76200
14,FYFICLFFILYFVFIFMFVFHMFVFYFLCFFLCLIYFLLVYFDICFLSLYLFF,42600
15,GQATLRLLKESGRQSHAPIFIVGAFDGNRRQIGEGMGSSIKMAEFRAAEDALR,26300
16,MLLSSLLCYFLNFSSSSHSVGGWFILPYGNRLLHVAFFPSLLLFRLFFFLWLA,52600
17,IRGNMSGSEFHWTCKSLGLCGILVRCLAWYCISKMYVLPTCYRRMYCCEVYKD,49700
18,LCLLHRWKEFNQPEDVKCAVEYLRHLRGLPLDTFEVSHKVVTILLVQVLGIQV,48900
19,MSAPVEEKMAALNVNDKKPAAPKADKKAKKSKGTEGEYPLEFSPAPEYLQHRI,30300
20,EVAEEAAAAAAPEKKTRRGASKKAAAEKAAAAEEEGEKAAQKAEKAAEKAAEK,33200
21,HLGFRYWLLSATEIVNTIFLPSVIAYLYTVYIRFLLTYWLSYAIIAGSFMILF,53000
22,GKTYTLEQDEDVLDTWFSSGLWPFSTLGWPNQTHDLENLFPTDVLETGWDILF,126000
23,RNLMVIVLVVGNLRLMIENLQKYGVLICLHCHDFRRSDILLGLGLYFLIPCHL,64000
24,FYFSWIAQEKYTDAFLLKPLGHYLGTRQLNQENIFIAYYIFVLACHYTFLYVS,33300
25,RSGYGSRDLYEYDLIEVRRTQVETALILTGLISLMKTNRSRERYVHTEHVTGT,39500
26,MGLLCFVFVLHSVFFIFNALSFLPWFVFLKIKFIFLCLSSFGRVFSSFIYMIF,53000
27,MVEAQDSSLSSTLFYLSFLDIGATFYTFLLLFFFLEDLEGFLLFIVFWMLLLV,44100
28,IVCGCMGAAGFRYFLNLPFLWFFLLHWCWWFTNDYLLYHVLVQEHTLPFNKFV,32500
29,MISWLLCFFDFRGDFLYGVLFFCTIFCFAVFGFFFFLQPSTFSFTIFFLCFFS,31000
30,MTNFSVALNVHTQIAYHNAEALRLKCMYNASSLLAKLPPHVLALIFLNHANWF,36200
